Data published in PMC4069081, “Multivalent Viral Capsids with Internal Cargo for Fibrin Imaging” (PLoS ONE, 2014).

Key:
[1] = biological target: fibrin clots formed from purified bovine fibrinogen with thrombin and CaCl2 (bovine) (UniProt P12799)
[2] = system: fibrin; settings: competitive binding to the fibrin polymerization pocket; ref [39], [40]; cited from earlier work
From the text: (§1) In this work, a peptide targeting group (GPR) with an affinity for fibrin was chosen to create a thrombus targeted VLP [38]. The GPR peptide was derived from the N-terminus of the α-chain of fibrin (Gly-Pro-Arg), and was discovered to bind to a pocket in the C-terminal region of the γ-chain [39], [40].

[3] = system: fibrin; settings: compared with original peptide (Gly-Pro-Arg); ref [41]; cited from earlier work
Procedure: In this work, a peptide targeting group (GPR) with an affinity for fibrin was chosen to create a thrombus targeted VLP [38]. The GPR peptide was derived from the N-terminus of the α-chain of fibrin (Gly-Pro-Arg), and was discovered to bind to a pocket in the C-terminal region of the γ-chain [39], [40]. […] A GPR peptide bearing an o-aminophenol for coupling to MS2 was prepared using solid phase peptide synthesis (Figure 1b). The sequence Gly-Gly-Ser-Lys-Gly-Tyr was added to the peptide to increase the spacing between the binding residues and the capsid, as well as provide a functional handle for modification (Tyr). For peptide samples used in op ...

[4] = compared with original peptide (Gly-Pro-Arg); ref [41]; cited from earlier work
From the text: as §1

free GPS peptide with C-terminal tyrosine
thrombin-induced clotting time of fibrin (light scattering at 350 nm) at 20 µM peptide; unchanged [1]: 13 min

free GPR peptide with C-terminal tyrosine
peptide concentration at which thrombin-induced clotting is inhibited (10 µM to 1.7 mM tested) [1]: > 300 µM
thrombin-induced clotting time of fibrin (light scattering at 350 nm) at 20 µM peptide; unchanged [1]: 18 min

GPR-MS2: bacteriophage MS2 T19pAF/N87C capsid with the GPR fibrin-targeting peptide coupled to its exterior
thrombin-induced clotting time of fibrin (light scattering at 350 nm) at 222 nM MS2 capsid (~20 µM peptide) [1]: 51 min

Gly-Pro-Arg [originally discovered peptide from N-terminus of the α-chain of fibrin]
Inhibition of thrombin-mediated fibrin clotting [2]: inhibit thrombin-mediated fibrin clotting

MS2 capsids (T19pAF/N87C) without peptide
thrombin-induced clotting time of fibrin (light scattering at 350 nm) at 222 nM MS2 capsid; unchanged [1]: 16 min

GPS-MS2: bacteriophage MS2 T19pAF/N87C capsid with the GPS control peptide coupled to its exterior
thrombin-induced clotting time of fibrin (light scattering at 350 nm) at 222 nM MS2 capsid (~20 µM peptide); unchanged [1]: 16 min

Gly-Pro-Arg-Pro-Pro
Fibrin binding of extended peptide [3]: improved fibrin-binding
Proteolytic resistance [4]: increased proteolytic resistance
